Source: publication PMC6224509 (2018)

Legend:
Experiment in all cases: SPR; 37°C
[1] = target: human 4-1BB residues 24–186, wild type, His–Avi (human, UniProt Q07011 24-186)
[2] = target: human 4-1BB residues 24–186 I132R, His–Avi (human, UniProt Q07011 24-186, I132R)
[3] = target: human 4-1BB residues 24–186 M101R, His–Avi (human, UniProt Q07011 24-186, M101R)
human 4-1BB residues 24–186 M101R, His–Avi, sequence (Q07011 24-186 M101R): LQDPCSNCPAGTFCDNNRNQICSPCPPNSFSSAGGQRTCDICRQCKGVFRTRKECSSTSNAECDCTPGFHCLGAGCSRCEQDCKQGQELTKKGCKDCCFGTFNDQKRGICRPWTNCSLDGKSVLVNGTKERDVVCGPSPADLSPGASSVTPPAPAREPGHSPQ

human 4-1BB residues 24–186, wild type, His–Avi, sequence (Q07011 24-186): as the sequence (Q07011 24-186 M101R) above, with R78M counted along it
human 4-1BB residues 24–186 I132R, His–Avi, sequence (Q07011 24-186 I132R): as the sequence (Q07011 24-186 M101R) above, with R78M, I109R counted along it

B1: urelumab (fully human IgG4 mAb) (antibody, V domains shown)
VH: QVQLQQWGAGLLKPSETLSLTCAVYGGSFSGYYWSWIRQSPEKGLEWIGEINHGGYVTYNPSLESRVTISVDTSKNQFSLKLSSVTAADTAVYYCARDYGPGNYDWYFDLWGRGTLVTVSS
VL: EIVLTQSPATLSLSPGERATLSCRASQSVSSYLAWYQQKPGQAPRLLIYDASNRATGIPARFSGSGSGTDFTLTISSLEPEDFAVYYCQQRSNWPPALTFGGGTKVEIK
- koff [1]: 0.014 s⁻¹
- koff [2]: 0.012 s⁻¹
- koff [3]: 0.0095 s⁻¹
